# Assay: yeast display, Sf9 membrane polyspecificity reagent, FACS + sequencing; frameworks hold sequencing errors
# Method in brief: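 In a synthetic yeast display library (Saccharomyces cerevisiae BJ5465), nanobody expression was induced with galactose for 36–48 hours. FACS gates were set low and high (top ~1%) using anti-HA fluorescence for expression and streptavidin fluorescence for binding of the Sf9 membrane reagent. Each polyreactivity label is drawn from the gate of origin.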
row,Sequence,polyreactivity (PSR sort gate)
1,LVQLVESGGGLVQAGGSLRLSCAASGSTFDGYAMGWYRQAPGKERELVAAIAYSGSSTYYADSVTGRFTISRDNSKNTVYIQMNSQKQEDTAVYYCAVDDTHPFGPDGGGDYWGQGTQVTVSS,low polyreactivity
2,QVQLVESGGGLVQAGGSLRLSCAASGRIFLYNVMGWYRQAPGKERELVAAISWSGTRTYYADSVKGRFTISRDNAKNTVYLQMNSLKPEDTAVYYCNACRYYRHDYWGQGTQVTVSS,low polyreactivity
3,QVQLVESGGGLVQAGGSLRLSCAASGYIFFGNAMGWYRQAPGKERELVAAIRWRGTSTYYADSVKGRFTISRDNAKNTVYLQMNSLKPEDTAVYYCAADVVRYNFYGTFLYDYDYWGQGTQVTVSS,low polyreactivity
4,QVQLVESGGGLVQAGGSLRLICAASGSTFGRNAMGWYRQAPGKERELVAAITASGGTTYYADSVKGRFTISRDNAKNTVYLQMNSLKPEDTAVYYFARAGHFSFKYDYWGQGTQVTVSS,low polyreactivity
5,QVQLVESGRGLVQAGGSLRLSCASSGFIFGPYAMGWYRQAPGKERELVAAISRRGGSTYYADSVKGRFTISRDNAKNTVYLQMNSLKPEDTAVYYCATRISQSYYNYGYWGQGTQGTVSS,high polyreactivity
6,QVQLVESGGGLVQAGGSLRLSCAASGFTFGRYAMGWYRQAPGKERELVAGITWSGGSTSYADSVKGRFTISRDNAKNTVYLQMNSLKPEDTAVYYCATRARYTRVHGRRYAYDYWGQGTQVTVSS,high polyreactivity
7,QVQLVESGGGLVQAGGSLRLSCAASGFTLLKYAMGWYIQAPGKERELVAAITRRGGRTSYADSVKGRFTISRDNAKNTVYLQMNSLKPEDTAVYYCNADGDTGRFDYWGQGTQVTVSS,high polyreactivity
8,QVQLVESGGGLVQAGGSLRLSCAASGFTSAVYAMGWYRQAPGKERELVAAIRRGGSTNYADSVKGRFTISRDNAKNTVYLQMNSLKPEDTAVYYCAAAGRGWFGYWGQGTQVTVSS,high polyreactivity
9,QVQLVESGGGLVQAGGSLRLSCAASGYILGRYAMGWSRQAPGNERELVAAITSGASTYYADSVKGRFTISRDNAKNTVYLQMNSLKPEDTAVYYCARVNGAKQGGEYDYWGQGTQVTVSS,high polyreactivity
10,QVQLVESAGGLVQAGGSLRLSCAASGFIFRYNTMGWYRQAPGKERELVATINRSGGSTYYADSVKGRFTISRDNAKNTVYLQMNSLKPEDTAVYYCAAVSLQPYYIAGATWDGDYWGQGTQVTVSS,high polyreactivity
11,QVQLVESGGGLVQAGGSLRLSCAASGSTLSFKAMGWYRQAPGKERELVAGITYSGGSTYYADSVKGRFTISRDNAKNTVYLQMNSLKPEDTAVYYCNKASGVYYGHLDYWGQGTQVTVSS,low polyreactivity
12,QVQLVESGGGLVQAGVSLRLSCAASGTFYSNAMGWYRQAPGKERELVAAINTSGSTNYADSVKGRFTISRDNAKNTVYLQMNSLKPEDTAVYYCAAGIVVTGYDYWGQGTQVTVSS,low polyreactivity
13,QVQLVESGGGLVQAGGSLRLSCAASGFTFAYYAMGWYRQAPGKERELVAAISWTGGSTYYADSVKGRFTISRDNAKNTVYLQMNSLKPEDTAVYYCAARGYRYRSYDYWGQGTQVTVSS,high polyreactivity
14,QVQLVESGGGLVQAGGSLRLSCAASGRIFHYNDMGWYRQAPWKERELVAAISTGGSTNYADSVKGRFTISRDNAKNTVYLQMNSLKPEDTAVYYCAADHPGTYPTTKFDYWGQGTQVTVSS,low polyreactivity
15,QVQLVESGGGLVHAGCSLRLSCAATGIIFAWYVMGWYRPAPGKERELVAAITQSGGSTFYADSVKGRFTISRDNAKNTVYLQMNSLKPEDTAVYYCNTEDFFNVPEMDSWGQGTQVTVSS,low polyreactivity
16,QVQLVESGGGLVQAGGSLRLSSAASGSIFELNAMGWYRQAPGKERELVAAIRWRTGRTYYADSVKGRFTISRDNAKNTVYLQMNSLKPEDTAVYYCARVAPASGVRWYYYWGQGTQVTVSS,high polyreactivity
17,QVQLQESAGGLVQAGDSQRMSCAASGNSFRFTDMGWYRQAPGKERELVAAINAGSTTYYADSVKGRFTISLDNAKNTVYLQMNSLKPEDTAVYYCAVYYLGSGTFGYWGQGAQVTVSS,high polyreactivity
18,QDQLGESGGGLVQAGGSLRLSCAASGRSFTYYTMGWYRQAPGKERELVATINNSGGSTYYADSVKGRFTISRDNAKNTVYLQMNSLKPEDTAVYYCAKVLGLPYGAPRSIFVEWEMDYWGQGTQVTVSS,low polyreactivity
19,QVQLVESGGGLVQAGGSLRLRCAASGRTFQYNAMGWYRQAPGKESELVAANTSNGGSTYYADSVKGRFTISRDNAKNTVYLQMNSLNPEDTAVYYCAKAYRYVDRGYRLLRYGFWGQGTQVTVSS,high polyreactivity
20,QVQLVESGGGLVQAGGSLRLSCAASGRIFVSYAMGWYRQAPGKERELVAAISSSGGSTYYADSVKGRFTISRDNAKNTVYLQMNSLKPEDTAVYYCNTDQRSRMDYWGQGTQVTVSS,low polyreactivity
21,QVQLVESGGGLVQAGGSLRLSCADSGSIFGINTMGWYRQAPGKERELVAAITFGGGSTYYADSVKGRFTISRDNAKNTVYLQMNSLKPEDTAVYYCNRLGVYWVGTEFDYWGQGTQVTVSS,low polyreactivity
22,QVQLVESGGGLVQAGGSLRLSCAASGLTFVKYAMGWYRPAPGKERELVAAISRSGGRTYYADSVKGRFTISRDNAKNTVYLQMNSLKPEDTAVYYCNADHVRGNHGYDYWGQGTQVTVSS,high polyreactivity

row,Sequence,polyreactivity (PSR sort gate)
1,QVQLVESGGGLVQAGGSLRLSCAASGSTFRPYAMGWYRQAPGKERELVARITKNGGSTYYADSVKGRFTISRDNAKNTVYLQMNSLKPEDTEVYYCAVRAWDPYTGKSDYWGQGTQVTVSS,low polyreactivity
2,QVQLVESGGGLVQAGGSLRLSCAASGRIFRYYAMGWYRQAPGKERELVASITRRGGSTYYADSVKGRFTISRDNAKNTVYLQMNSLKPEDTAVYYCVGDTYYNLGNYWGQGTQVTVSS,high polyreactivity
3,QVQLVESGGGLVQAGGSLRLSCAASGRTFTINTLGWYRQAAGKERELVAAIVGDGTTNYADSVKGLFTISGDNAKNTVDLQMNSLKPEDTAVYYCAADAGYLYDWPYNSYYWGQGTQLTVSS,low polyreactivity
4,QVQLVESGGGLLQAGGSLRLSCAASGRTFPYYAMGWYRQAPGKERELVAAISSSGGSTYYADSVKGRFTISRDNAKNTVYLEMNSLKPEDTEVYYCAAVYQFIKWGDSYEYWGQGTQVTVSS,high polyreactivity
5,QVQLVESGGGLVQAGGRLRLSCAASGSTFWYYAMGWYRQAPGKEREFVAGISTSGVSTYYADSVKGRFTISRDNAKNTVYLQMNSLKPEDTAVYYCAADYIFRRAGWYLMDYWGQGTQVTVSS,high polyreactivity
6,QVQLVESGGGLVQAGGSLRLSCAASGSTFNRNAMGWYRQAPGKERELVADISRGGRTYYSDSVKGRFTITRDNAKNTVYLQMNSLKPEDTAVFYCATVVSRGKQPFDMDYWGQGTQVTVSS,low polyreactivity
7,QVQLVESGGGLVQAGGSLRLSCAASGFTFFQNHRGWYRQAPGTERELVADISYRGRRPYYADSVKGRFTISRDNAKNTVYLQMNCLKPVDTAVYYCARRSSKPSSIQYYYCGQGTQVTVSS,high polyreactivity
8,QDQLVESGGGLVQAGGSLRLSCAASGRTFPGYAMGWYRQAPGKERELVATSTVSDGSTYYADSVKGRFTISRDNAMNTVYLHMNSLIAEDTAVYYCAKDGGRKRSYSDFDYWRQGTQVTVSS,low polyreactivity
9,QVQLVESGGGLVQAGGSLRLSCAASGRIFWYYGMGWYRQAPGKERELVAAIRGGGSTYYADSVKGRFTISRDNAKNTVYLQMNSLKPEETAVYYCAVDWSRFYNRGGDYWGQGTQVTVSS,high polyreactivity
10,QVQLVESGGGLVQAGGSLRLSCAASGFTFKWYTMGWYRQAPGKERELVAGISRRGGSTYYADSVKGRFTISRDNAKNTVYLQMNSLKPEDTAVYYCAAEFPTVYFPWSEMDYWGQGTQVTVSS,high polyreactivity
11,QVQLVESGGGLVQAGGSLRLSCAASGSTFRFNTMGWYRQAPGKERELVAAITRGGSTNYADSVKGRFTISRDNAKNTVYLQMNSLKPEDTAVYYCNTTRYSVRKYDYWGQGTQVTVSS,low polyreactivity
12,QVQLVESGGGLVQAGVSLRLSCAATGFPLQVYDMGWYRQAPGKEMELVADISGSGDSTNYADSVKGRFTISRDNAKNSVYLQMNSLKPEDTAVYYCAAEVRGGYYGYDYWGQGTQVTVSS,low polyreactivity
13,QVQLVESGGGLVQAGGSLRLSCAASGSTFPSNAMGWYRQAPGKERELVAALSRGGTTNYADSVKGRFTISRDNAKNTVYLQMNCLKPEDTAVYYCAKVYKLYWYKAYRRDYWGQGTQVTVSS,high polyreactivity
14,QVQLVESGGGLVQAGGSLRLSCASSGSIFPEYDMVWYRQAPGKERELVASISSGGSSTYYADSVKGRFTISRDNAMNTVYLQMNSLKPEATAVYYCARRRSYKRGFDYWGQGTQVTVSS,low polyreactivity
15,QVQLVESGGALVQAGGSLRLSCAASGFIFNHYAMGWYRQAPGKEREFVAAISWSGGSTYYADSVKGRFTISRDNAKNTVYLQMNSLKPEETAVYYCAASYNGLWHGDYDYWGQGTQVTVSS,low polyreactivity
16,QVQLVESGGGLVQAGGSLRLSCAASGSTFEKNAMGWYRQAPGKERELVAAISNGVSTYYADSVKGRFTISRDNAKNTVYLQMNSLKPEDTAVYYCAADLFFGAETVYYDKFDYWGQGTQVTVSS,low polyreactivity
17,QVQLVESGGGLVQAGGSLRLSCAASGITFWAYAMGWYRQAPGKERELVASISSGGSTYYADSVKGRFTISRDNAKNTVYLQMNSLKPEDTAVYYCAATTLRWYGDTFNYWGQGTQVTVSS,high polyreactivity
18,QVQLVESGGGLVQAGGSLRLSCAASGNIFVYYAMGWYRQAPGKERELVASITTSGGSTYYADSVKGRFTISRDNAKNTVYLQMNSLKPEDTAVYYCAALYYYWMDYWGQGTQVTVSS,low polyreactivity
19,QVQLVESGGGLVQAGGSLRLSSAVSGNTFGPYDMGWYRQAPGKERELVAGNTSGGSTYYADSVKGRFTISLDNAMNTVYLQMNSLKPEDTAVYYCAADYFLWVYWYDYWGQGTQVTVSS,high polyreactivity
20,QVQLVESGGGLVQAGGSLRLSCAASGSIFRYYAMGWYRQAPGKERELVAAISGDSGRTYYADSVKGRFTISRDNAKNTVYFQMNSLKPEDTAVYYCNARVAYRYRTGYDYWGQGTQVTVSS,high polyreactivity
21,QVQLVESGGGLVQAGGSLRLSCAASGRTFRPYAMGWYRQAPGKERELVAAITSGVSTYYADSVKGRFTISRDNAKNTVYLQMNSLKPEDTAVYYCARGYLRSYRWSYTTRMGYWVQGTQVTVSS,high polyreactivity

# — the nanobody polyreactivity screen of Harvey et al. (2022)
